The target in experiment [1] is Mpox A28 (OPG153), residues 2-361, recombinant antigen (Monkeypox virus; template GenBank …, UniProt A0A7H0DNC4). In words: ELISA.
The target in experiment [2] is VACV A26 (OPG153), residues 2-361, recombinant antigen (Vaccinia virus strain IHDW (GenBank …, UniProt P24758, strain)). In words: ELISA.

B1: 10M2146, human anti-A28 monoclonal antibody, IgG1 (antibody, V domains shown)
VH: EVQLVQSGAEVKKPGESLKISCKGSGYSFTTHWIGWVRQMPGEGLEWLGIIYPGDSETKYSPSFQGQVTISVDKSINTAYLHWSSLKASDTAMYFCARRPKNYYDASGYYNWLDPWGQGTLVTVSS
VL: EIQMTQSPSTLSASVGDRVTITCRASQSLSTWLAWYQQKPGKAPKLLIYKASILESGVPSRFSASGSGTEFTLTISGLQPDDFATYYCQQYNSYLGAFGQGTKVEIK
For the molecule B1, the binding result in experiment [1] and in experiment [2] was “binds” in each case.

These data come from article doi:10.1101/2025.05.22.655505 (bioRxiv, 2025).
